Laboratory results as given in the supplement of paper PMC10567573.

B1: ZMYND11 (parent)
chain: YCSIKCQQEHWHAEHKRTCRRKR

Variants of: B1
Experiment: protein stability index of a GFP-peptide fusion (GPS, HEK-293T) (PSI 1-6); higher = more stable
Conditions: c terminus: native
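Note: lentivirally expressed fusions sorted by FACS into six bins by GFP to DsRed ratio, PSI derived from sequencing read proportions per bin multiplied by bin number.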

Variant | protein stability index
YCSIKCQQEHWHAEHKFTCRRKR | 1.8
YCSIKCQQEHWHAEHKHTCRRKR | 2.44
YCSIKCQQEHWHAEHKITCRRKR | 2.58
YCSIKCQQEHWHAEHKKTCRRKR | 2.27
YCSIKCQQEHWHAEHKLTCRRKR | 2.25
YCSIKCQQEHWHAEHKMTCRRKR | 2.32
YCSIKCQQEHWHAEHKNTCRRKR | 2.28
YCSIKCQQEHWHAEHKPTCRRKR | 2.89
YCSIKCQQEHWHAEHKQTCRRKR | 2.39
YCSIKCQQEHWHAEHKSTCRRKR | 2.77
YCSIKCQQEHWHAEHKTTCRRKR | 2.25
YCSIKCQQEHWHAEHKVTCRRKR | 2.55
YCSIKCQQEHWHAEHKWTCRRKR | 1.56
YCSIKCQQEHWHAEHKYTCRRKR | 1.82
YCSIKCQQEHWHAEHKRACRRKR | 2.36
YCSIKCQQEHWHAEHKRCCRRKR | 2.85
YCSIKCQQEHWHAEHKRDCRRKR | 2.95
YCSIKCQQEHWHAEHKRECRRKR | 2.56
YCSIKCQQEHWHAEHKRFCRRKR | 2.47
YCSIKCQQEHWHAEHKRGCRRKR | 2.39
YCSIKCQQEHWHAEHKRHCRRKR | 2.5
YCSIKCQQEHWHAEHKRICRRKR | 2.76
YCSIKCQQEHWHAEHKRKCRRKR | 2.84
YCSIKCQQEHWHAEHKRLCRRKR | 1.27
YCSIKCQQEHWHAEHKRMCRRKR | 1.91

Variant | protein stability index
YCSIKCQQEHWHAEHKRNCRRKR | 3.18
YCSIKCQQEHWHAEHKRPCRRKR | 2.08
YCSIKCQQEHWHAEHKRQCRRKR | 3.08
YCSIKCQQEHWHAEHKRRCRRKR | 2.29
YCSIKCQQEHWHAEHKRSCRRKR | 2.56
YCSIKCQQEHWHAEHKRVCRRKR | 1.61
YCSIKCQQEHWHAEHKRWCRRKR | 2.16
YCSIKCQQEHWHAEHKRYCRRKR | 2.45
YCSIKCQQEHWHAEHKRTARRKR | 2.84
YCSIKCQQEHWHAEHKRTDRRKR | 3.46
YCSIKCQQEHWHAEHKRTERRKR | 2.75
YCSIKCQQEHWHAEHKRTFRRKR | 2.24
YCSIKCQQEHWHAEHKRTGRRKR | 2.71
YCSIKCQQEHWHAEHKRTHRRKR | 2.71
YCSIKCQQEHWHAEHKRTIRRKR | 2.72
YCSIKCQQEHWHAEHKRTKRRKR | 2.3
YCSIKCQQEHWHAEHKRTLRRKR | 2.83
YCSIKCQQEHWHAEHKRTMRRKR | 2.41
YCSIKCQQEHWHAEHKRTNRRKR | 2.21
YCSIKCQQEHWHAEHKRTPRRKR | 3.4
YCSIKCQQEHWHAEHKRTQRRKR | 2.19
YCSIKCQQEHWHAEHKRTRRRKR | 2.76
YCSIKCQQEHWHAEHKRTSRRKR | 2.82
YCSIKCQQEHWHAEHKRTTRRKR | 2.77
YCSIKCQQEHWHAEHKRTVRRKR | 2.48

Variant | protein stability index
YCSIKCQQEHWHAEHKRTWRRKR | 1.98
YCSIKCQQEHWHAEHKRTYRRKR | 3.63
YCSIKCQQEHWHAEHKRTCARKR | 2.33
YCSIKCQQEHWHAEHKRTCCRKR | 2
YCSIKCQQEHWHAEHKRTCDRKR | 1.76
YCSIKCQQEHWHAEHKRTCFRKR | 3.4
YCSIKCQQEHWHAEHKRTCGRKR | 2.65
YCSIKCQQEHWHAEHKRTCHRKR | 2.2
YCSIKCQQEHWHAEHKRTCIRKR | 1.35
YCSIKCQQEHWHAEHKRTCKRKR | 1.72
YCSIKCQQEHWHAEHKRTCLRKR | 2.17
YCSIKCQQEHWHAEHKRTCNRKR | 2.02
YCSIKCQQEHWHAEHKRTCPRKR | 1.89
YCSIKCQQEHWHAEHKRTCQRKR | 1.51
YCSIKCQQEHWHAEHKRTCSRKR | 1.99
YCSIKCQQEHWHAEHKRTCTRKR | 3.02
YCSIKCQQEHWHAEHKRTCVRKR | 2.8
YCSIKCQQEHWHAEHKRTCWRKR | 1.98
YCSIKCQQEHWHAEHKRTCYRKR | 2.28
YCSIKCQQEHWHAEHKRTCRAKR | 2.2
YCSIKCQQEHWHAEHKRTCRCKR | 2.15
YCSIKCQQEHWHAEHKRTCRDKR | 1.96
YCSIKCQQEHWHAEHKRTCREKR | 2.43
YCSIKCQQEHWHAEHKRTCRFKR | 2.45
YCSIKCQQEHWHAEHKRTCRGKR | 2.84

Variant | protein stability index
YCSIKCQQEHWHAEHKRTCRHKR | 1.97
YCSIKCQQEHWHAEHKRTCRIKR | 2.99
YCSIKCQQEHWHAEHKRTCRKKR | 2.92
YCSIKCQQEHWHAEHKRTCRLKR | 2.2
YCSIKCQQEHWHAEHKRTCRMKR | 2.4
YCSIKCQQEHWHAEHKRTCRNKR | 1.98
YCSIKCQQEHWHAEHKRTCRPKR | 1.52
YCSIKCQQEHWHAEHKRTCRQKR | 2.04
YCSIKCQQEHWHAEHKRTCRSKR | 3.06
YCSIKCQQEHWHAEHKRTCRTKR | 2.41
YCSIKCQQEHWHAEHKRTCRVKR | 2.61
YCSIKCQQEHWHAEHKRTCRWKR | 1.94
YCSIKCQQEHWHAEHKRTCRYKR | 2.2
YCSIKCQQEHWHAEHKRTCRRAR | 1.83
YCSIKCQQEHWHAEHKRTCRRCR | 2.6
YCSIKCQQEHWHAEHKRTCRRDR | 1.85
YCSIKCQQEHWHAEHKRTCRRER | 2.41
YCSIKCQQEHWHAEHKRTCRRFR | 2.13
YCSIKCQQEHWHAEHKRTCRRGR | 2.33
YCSIKCQQEHWHAEHKRTCRRHR | 1.74
YCSIKCQQEHWHAEHKRTCRRIR | 2.37
YCSIKCQQEHWHAEHKRTCRRLR | 2.02
